Assay results taken from article PMC7865352, “The Relevance of the SH2 Domain for c-Src Functionality in Triple-Negative Breast Cancer Cells”.

Molecular target: GST-SH2 (c-Src SH2 domain) (human, UniProt P12931 151-248)
Assay: ELONA; ELONA with plated GST proteins and digoxigenin-labelled aptamers (buffer not given in material); selection in PBS + 1 mM Mg, 37 C
Conditions: protein: recombinant, label: digoxigenin

B1: ApSH2.17F (ssDNA)
DNA: GCGGATGAAGACTGGTGTGCGGTGGTGGGTTGGGTGGGTGGGTTTGCGGGTTGCGTTGGCCCTAAATACGAGCAAC
binding result (G-quadruplex examined in silico): binds

B2: ApSH2.14F (ssDNA)
DNA: GCGGATGAAGACTGGTGTAGACAATGGATACTCCCGCCACCTCCTCCCCCGCCCCCCCGCCCTAAATACGAGCAAC
binding result: binds
